Measured values as given in patent publication US5451506A, “Oncostatin M and novel compositions having anti-neoplastic activity” (Oncogen Limited Partnership, priority 1993, dated 1995).

Legend:
[1] = molecular target: T1, Oncostatin M receptor on A375 or A549 cells (Homo sapiens, UniProt P40189+Q99650); test: Specificity of Oncostatin M receptor: competition for binding of 125I-Oncostatin M; conditions: 125I-Oncostatin M 30-50 ng/ml
T1 construct: endogenous in cells; host or cells: A375 or A549 cells (intact monolayers)
T1 sequence (Q99650 28-979): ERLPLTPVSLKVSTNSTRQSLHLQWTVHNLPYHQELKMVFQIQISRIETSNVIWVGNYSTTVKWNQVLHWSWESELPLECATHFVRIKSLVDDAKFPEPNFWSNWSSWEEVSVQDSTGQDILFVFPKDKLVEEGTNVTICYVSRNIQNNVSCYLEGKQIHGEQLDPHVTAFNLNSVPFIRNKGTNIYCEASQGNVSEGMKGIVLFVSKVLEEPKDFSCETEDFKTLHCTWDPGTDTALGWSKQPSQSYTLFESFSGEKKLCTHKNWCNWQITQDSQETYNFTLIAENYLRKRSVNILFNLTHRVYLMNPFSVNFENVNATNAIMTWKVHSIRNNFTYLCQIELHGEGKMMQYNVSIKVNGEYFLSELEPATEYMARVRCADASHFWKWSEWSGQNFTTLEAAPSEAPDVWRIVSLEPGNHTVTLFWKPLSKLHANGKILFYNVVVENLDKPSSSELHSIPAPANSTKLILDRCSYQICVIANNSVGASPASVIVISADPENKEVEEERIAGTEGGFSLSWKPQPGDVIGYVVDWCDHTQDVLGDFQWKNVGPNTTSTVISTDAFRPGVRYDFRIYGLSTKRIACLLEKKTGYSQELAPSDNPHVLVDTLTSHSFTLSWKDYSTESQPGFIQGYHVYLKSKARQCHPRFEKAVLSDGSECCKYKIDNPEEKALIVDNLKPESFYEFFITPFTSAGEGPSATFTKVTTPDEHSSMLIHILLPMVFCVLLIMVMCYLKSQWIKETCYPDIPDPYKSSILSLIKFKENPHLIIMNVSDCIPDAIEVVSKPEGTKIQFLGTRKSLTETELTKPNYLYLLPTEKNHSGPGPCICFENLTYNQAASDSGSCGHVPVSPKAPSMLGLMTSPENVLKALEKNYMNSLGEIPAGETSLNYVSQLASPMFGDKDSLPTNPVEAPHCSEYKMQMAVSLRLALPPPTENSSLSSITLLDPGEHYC
T1 sequence (P40189 23-918): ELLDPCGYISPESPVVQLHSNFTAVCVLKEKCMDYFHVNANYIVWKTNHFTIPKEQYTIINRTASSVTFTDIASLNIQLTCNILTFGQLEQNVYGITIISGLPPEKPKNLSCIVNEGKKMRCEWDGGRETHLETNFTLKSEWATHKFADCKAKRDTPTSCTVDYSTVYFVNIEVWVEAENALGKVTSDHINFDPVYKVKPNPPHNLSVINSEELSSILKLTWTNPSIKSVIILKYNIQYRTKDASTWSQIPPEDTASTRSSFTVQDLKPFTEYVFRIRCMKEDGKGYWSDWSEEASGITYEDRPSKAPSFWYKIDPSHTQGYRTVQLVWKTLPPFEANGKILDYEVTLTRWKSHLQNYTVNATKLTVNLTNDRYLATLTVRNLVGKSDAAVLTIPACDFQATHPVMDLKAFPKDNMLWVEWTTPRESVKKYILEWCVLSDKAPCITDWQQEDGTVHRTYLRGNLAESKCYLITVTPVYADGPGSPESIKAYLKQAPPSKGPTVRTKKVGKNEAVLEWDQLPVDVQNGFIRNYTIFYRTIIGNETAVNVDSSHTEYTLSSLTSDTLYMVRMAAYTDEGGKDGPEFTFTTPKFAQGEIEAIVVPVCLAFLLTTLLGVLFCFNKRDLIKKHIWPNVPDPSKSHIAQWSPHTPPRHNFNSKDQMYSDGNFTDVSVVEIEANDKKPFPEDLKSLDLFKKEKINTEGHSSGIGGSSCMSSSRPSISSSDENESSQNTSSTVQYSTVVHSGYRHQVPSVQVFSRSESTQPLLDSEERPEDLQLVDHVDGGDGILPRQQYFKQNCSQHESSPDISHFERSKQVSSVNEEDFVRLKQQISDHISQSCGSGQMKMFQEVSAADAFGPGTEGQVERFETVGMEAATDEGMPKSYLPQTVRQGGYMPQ
Procedure: The cell line of interest was plated in 48-well plates at a density of 2×10^5 cells/well and maintained at 37° C. for 16-24 hours before initiation of the assay. Cell monolayers were then washed once with Binding buffer (Linsley et al., Biochemistry (1986) 25:2978-2986). To measure total binding, ^125 I-Oncostatin M was added at concentrations ranging from 0.5-100 ng/ml. To measure non-specific binding, unlabeled Oncostatin M was added simultaneously with the ^125 I-Oncostatin M to replicate plates at a concentration 20- to 100-fold higher than the concentration of ^125 I-Oncostatin M. Binding was allowed to proceed for 2-5 hours at 23°, then the monolayers were washed four times with Binding Buffer, cell-bound radioactivity was solubilized with 1N NaOH and was counted in a gamma counter. Specific binding was calculated by subtracting the non-specific binding from total binding. The dissociation constant (Kd) and binding capacity was determined by Scatchard analysis (Scatchard, Ann. N.Y. Acad. Sci. (1949) 51:660).
The specificity of the Oncostatin M receptor was determined by evaluating the ability of several other polypeptide growth factors to compete for binding of ^125 I-Oncostatin M (at 30-50 ng/ml) to A375 or A549 cells.

A375 cells [2] = test: Growth inhibition assay (A375 proliferation; synergy tests); assay type: cell-based, human
Procedure: A375 melanoma cells (4×10^3 cells/50 μl), Mv1Lu mink lung epithelial cells (3.5×10^3 cells/50 μl), or other cell line of interest at an appropriate cell density were subcultured for four hours on flat-bottomed 96-well tissue culture plates (Costar 3596, Cambridge, Mass.) in growth medium comprising Dulbecco's modified Eagle's medium (DMEM), supplemented with 10% heat-in-activated fetal bovine serum, and P/S. Test samples to be assayed for growth inhibition were diluted in growth medium and assayed in triplicate with 50 μl of the diluted sample added to each well. The cells were incubated for 72 hours at 37° C.
The growth inhibitory activity of highly purified TGF-β1, recombinant gamma-interferon (rIFN-γ), and Oncostatin M on A375 cells was determined, and possible synergy between TGF-β1 and Oncostatin M, TGF-β1 and rIFN-γ, and Oncostatin M and rIFN-γ in inhibiting A375 proliferation was tested. […] is expressed in units of Mv1Lu growth inhibitory activity, rIFN-γ in units of anti-viral activity and Oncostatin M in units of A375 growth inhibitory activity. Concentrations of TGF-β1 (1-30 U/ml) and Oncostatin M (0.5-10 U/ml) were chosen which caused either no or only minimal growth inhibition when tested individually.

A375 cells [3] = test: Growth inhibitory assay of recombinant Oncostatin M (crystal violet staining); assay type: cell-based, human; conditions: for Oncostatin M activity in medium of transfected COS cells: further test, one unit inhibits growth of A375 cells by 50%; for Expression Level Units/ml (growth inhibitory activity): medium or extract of the expressing host cells (COS, CHO without methotrexate amplification, sf9)
Procedure: Biological activity of recombinant Oncostatin M was assessed by a growth inhibitory assay. Briefly, aliquots of extracts from transformed cells or medium from cell cultures were lyophilized with 20 μg bovine serum albumin as a carrier protein, resuspended in DMEM containing 10% fetal calf serum, and diluted serially before addition to 96-well cultures containing A375 cells (3.5×10^3 cells/well). […] Recombinant Oncostatin M was prepared using the following expression systems: E. coli, COS cells, CHO and insect cells (sf9).

Molecule: fibroblast growth factor
- Inhibitory activity towards binding of 125I-Oncostatin M ([1]; competitor 2.5 μg/ml): None of these showed significant inhibitory activity

Molecule: formyl-M-L-F
- Inhibitory activity towards binding of 125I-Oncostatin M ([1]; competitor 50 μM): None of these showed significant inhibitory activity

Molecule: Lys^3 bombesin
- Inhibitory activity towards binding of 125I-Oncostatin M ([1]; competitor 50 μM): None of these showed significant inhibitory activity

Molecule: TGF-β1: highly purified transforming growth factor-β1, units of Mv1Lu growth inhibitory activity
- Inhibition of cell growth (A375 cells [2]; 3.4 U/ml, alone): 7%

Molecule: Tyr^3 -bombesin
- Inhibitory activity towards binding of 125I-Oncostatin M ([1]; competitor 1 μM): None of these showed significant inhibitory activity

Molecule: epidermal growth factor: polypeptide growth factor tested as competitor
- Inhibitory activity towards binding of 125I-Oncostatin M ([1]; competitor 2.5 μg/ml): None of these showed significant inhibitory activity

Molecule: interleukin 1-β: polypeptide growth factor tested as competitor
- Inhibitory activity towards binding of 125I-Oncostatin M ([1]; competitor 50 μg/ml): None of these showed significant inhibitory activity

B1: ^125 I-Oncostatin M: Oncostatin M purified from TPA-treated U937 cells and radiolabeled with 125I by the iodogen method (protein, UniProt P13725 26-221, looked up)
Oncostatin-M: AAIGSCSKEYRVLLGQLQKQTDLMQDTSRLLDPYIRIQGLDVPKLREHCRERPGAFPSEETLRGLGRRGFLQTLNATLGCVLHRLADLEQRLPKAQDLERSGLNIEDLEKLQMARPNILGLRNNIYCMAQLLDNSDTAEPTKAGRGASQPPTPTPASDAFQRKLEGCRFLHGYHRFMHSVGRVFSKWGESPNRSRR
modifications: 125I label
notes: Oncostatin M purified from TPA-treated U937 cells and radiolabeled with 125I by the iodogen method
- Original biological activity retained after iodination (A375 cells [2]; growth inhibition assays): approximately 85%

B2: gamma interferon: gamma-interferon; recombinant in the synergy tests (protein, UniProt P01579 24-161, looked up)
Interferon gamma: QDPYVKEAENLKKYFNAGHSDVADNGTLFLGILKNWKEESDRKIMQSQIVSFYFKLFKNFKDDQSIQKSVETIKEDMNVKFFNSNKKKRDDFEKLTNYSVTDLNVQRKAIHELIQVMAELSPAAKTGKRKRSQMLFRG
- Inhibitory activity towards binding of 125I-Oncostatin M ([1]; competitor 2.5 μg/ml): None of these showed significant inhibitory activity

B3: pH3M/βOncM: Oncostatin M with βTGF leader sequence fused to the coding sequence, secreted into medium (protein, UniProt P13725 26-221, looked up)
Oncostatin-M: B1 Oncostatin-M
modifications: expressed with TGF-beta leader sequence
- Sp. Act (A375 cells [3]; E. coli fusion proteins purified and refolded before testing): > 10,000 GIA units/ug protein
- Oncostatin M activity in medium of transfected COS cells (A375 cells [3]): approximately 18,000 units/ml
- Expression Level Units/ml (growth inhibitory activity) (A375 cells [3]): 56,000 GIA units/ml

B4: pSV2βOncM/dhfr: Human Oncostatin M gene fused to βTGF leader sequence, with mouse dhfr gene (protein, UniProt P13725 26-221, looked up)
Oncostatin-M: B1 Oncostatin-M
modifications: expressed with TGF-beta leader sequence
- Expression Level Units/ml (growth inhibitory activity) (A375 cells [3]): 10,000 GIA units/ml

B5: pAc/OncM: Oncostatin M expressed under control of the baculovirus polyhedrin gene regulators (protein, UniProt P13725 26-221, looked up)
Oncostatin-M: B1 Oncostatin-M
modifications: baculovirus-expressed
notes: Oncostatin M expressed under control of the baculovirus polyhedrin gene regulators
- Expression Level Units/ml (growth inhibitory activity) (A375 cells [3]): 1,800 GIA units/ml

B6: plasmid pH3M containing just the Oncostatin M sequences: pH3M containing Oncostatin M sequences without the fused βTGF leader sequence (protein, UniProt P13725 26-221, looked up)
Oncostatin-M: B1 Oncostatin-M
- Oncostatin M activity in medium of transfected COS cells (A375 cells [3]): No activity was detected
